Results published in publication PMC4421793, “A secretory kinase complex regulates extracellular protein phosphorylation” (eLife, 2015).

B1: Fam20C (93–584), recombinant (enzyme, human, UniProt Q8IXL6 93-584, looked up)
chain: DFSSDPSSNLSSHSLEKLPPAAEPAERALRGRDPGALRPHDPAHRPLLRDPGPRRSESPPGPGGDASLLARLFEHPLYRVAVPPLTEEDVLFNVNSDTRLSPKAAENPDWPHAGAEGAEFLSPGEAAVDSYPNWLKFHIGINRYELYSRHNPAIEALLHDLSSQRITSVAMKSGGTQLKLIMTFQNYGQALFKPMKQTREQETPPDFFYFSDYERHNAEIAAFHLDRILDFRRVPPVAGRMVNMTKEIRDVTRDKKLWRTFFISPANNICFYGECSYYCSTEHALCGKPDQIEGSLAAFLPDLSLAKRKTWRNPWRRSYHKRKKAEWEVDPDYCEEVKQTPPYDSSHRILDVMDMTIFDFLMGNMDRHHYETFEKFGNETFIIHLDNGRGFGKYSHDELSILVPLQQCCRIRKSTYLRLQLLAKEEYKLSLLMAESLRGDQVAPVLYQPHLEALDRRLRVVLKAVRDCVERNGLHSVVDDDLDTEHRAASAR
notes: human Fam20C, residues 93-584; also called recombinant Fam20C; source: Hi5 insect cells, purified from the conditioned medium (MBP tag removed by TEV protease digestion and gel filtration)
B2: Fam20A (63–529), recombinant (domain or fragment, human, UniProt Q96MK3 63-529, looked up)
chain: DPGTIVHNFSRTEPRTEPAGGSHSGSSSKLQALFAHPLYNVPEEPPLLGAEDSLLASQEALRYYRRKVARWNRRHKMYREQMNLTSLDPPLQLRLEASWVQFHLGINRHGLYSRSSPVVSKLLQDMRHFPTISADYSQDEKALLGACDCTQIVKPSGVHLKLVLRFSDFGKAMFKPMRQQRDEETPVDFFYFIDFQRHNAEIAAFHLDRILDFRRVPPTVGRIVNVTKEILEVTKNEILQSVFFVSPASNVCFFAKCPYMCKTEYAVCGNPHLLEGSLSAFLPSLNLAPRLSVPNPWIRSYTLAGKEEWEVNPLYCDTVKQIYPYNNSQRLLNVIDMAIFDFLIGNMDRHHYEMFTKFGDDGFLIHLDNARGFGRHSHDEISILSPLSQCCMIKKKTLLHLQLLAQADYRLSDVMRESLLEDQLSPVLTEPHLLALDRRLQTILRTVEGCIVAHGQQSVIVDGPVEQ
notes: human Fam20A, residues 63-529; Cloned into a modified pI-secSUMOstar vector in which the SUMO tag was replaced by an MBP tag and a TEV site; also called recombinant Fam20A; source: Hi5 insect cells, purified from the conditioned medium (MBP tag removed by TEV protease digestion and gel filtration)

Assays:
[1] = target: the molecule itself; assay: SEC; one purified protein alone on Superdex 200 in 25 mM Tris-HCl pH 7.4, 150 mM NaCl; oligomeric state judged from the elution profile
[2] = target: B1; assay: cell-based or functional assay
[3] = target: B1; assay: SEC; two purified proteins (1 mg/ml each) incubated on ice for 2 hr, then Superdex 200 in 25 mM Tris-HCl pH 7.4, 150 mM NaCl; fractions on SDS-PAGE, Coomassie; details: both partners purified

| Km of Fam20C (2 μg/ml) for ENAM (173–277) S191A with excess Fam20A (40 μg/ml); 14.6 μM without Fam20A, a ∼2.5-fold decrease [2] | kcat of Fam20C (2 μg/ml) for ENAM (173–277) S191A with excess Fam20A (40 μg/ml); 0.04 s^−1 without Fam20A, a 19-fold increase [2] | stoichiometry N [3] | Binder | stoichiometry N [1] |
| --- | --- | --- | --- | --- |
| – | – | – | B1 | 2 |
| 5.6 µM | 0.76 s⁻¹ | 1 | B2 | – |
